Consider 1 substance from paper doi:10.1101/2020.06.24.169508.

The target in the assay is Vibrio campbellii chitoporin VhChiP, wild type (Vibrio campbellii (formerly Vibrio harveyi) BAA-1116). As to the kind of experiment: SEC. (In gel filtration, larger molecules generally elute earlier.)

Broadly, the stoichiometry N is a count of units in the complex or per binding partner. “Vibrio campbellii chitoporin VhChiP, wild type (natural protein)” registered a stoichiometry N of 3.
